Target: trypsin (trypsin-EDTA 0.25%, Sigma-Aldrich)
Test: cell-based or functional assay

change in FITC fluorescence signal (dequenching): > 34 fold
Substance: PLL-FITC (poly-L-lysine conjugated with fluorescein isothiocyanate, FITC/PLL=10/1)
